Usually Km stands for the substrate concentration at which the rate is half of its maximum. One may read the kcat as the number of substrate molecules converted per active site and unit of time at saturation.

This series concerns CC(=O)Oc1ccc([N+](=O)[O-])cc1. Nature of the series: purified protein. The note with it: PBS pH 7.0, 20 °C, 0.1-2.5 mM substrate. Format: biochemical, Marinobacter sp.

For the substance Ple628 (Marinobacter sp.), the Km came out at 1800 µM and the kcat came out at 4.498 s⁻¹.

For the substance Ple629 (Marinobacter sp.), the Km worked out at 2100 µM and the kcat was found to be 4.742 s⁻¹.

The record behind these values is paper PMC9350882, “Molecular and Biochemical Differences of the Tandem and Cold-Adapted PET Hydrolases Ple628 and Ple629, Isolated From a Marine Microbial Consortium” (Frontiers in Bioengineering and Biotechnology, 2022).
